Tested on: integrin-expressing B16F0 melanoma
Conditions: mouse, in vivo, iv
Procedure: Approximately 1·10^6 B16F0 murine melanoma cells (from C57BL6 mice) in PBS (40 μL) were injected s.c. into the right hind paw of 6-8 weeks female C57BL6 mice (Charles River Laboratories). After 4 weeks, tumors reached a size suitable for nuclear imaging experiments.
SPECT imaging co-registered with high-resolution CT was performed on a X-SPECT™ system (Gamma Medica, Northridge, Calif., USA). The SPECT system has two gamma cameras, equipped with 1 mm diameter medium-energy pinhole collimators. The solid state CT is mounted on the same gantry as the gamma cameras enabling high quality image fusion. The SPECT images were reconstructed using OSEM (ordered subsets expectation maximization) and CT images were reconstructed using a modified Feldkamp cone-beam reconstruction algorithm (COBRA). The ^111In-MSAP-RGD probe (300 μCi in 150 μL) was injected (iv, tail vein) and after 2 hours mice were anesthetized (isoflurane). CT (256 projections, 50 kV, 0.5 mA) was performed followed by a SPECT acquisition with parameters of 64 projections, 30-120 seconds per projection and a radius of rotation of 3.5 cm giving a resolution of 1.8 mm. […] Mean SPECT pixel intensity and tumor volumes were determined by designing regions of interest (ROIs) on the hind paws of the micrometer resolution CT scans and extrapolating these ROIs to the fused SPECT data using Osirix software. […]

With `N=C(N)NCCC[C@@H]1NC(=O)[C@H](CCCCNC(=O)CCCN2C(=O)CC(SC[C@H](NC(=O)[C@H](CCCCNC(=O)CCCCCNc3ccc([N+](=O)[O-])c4nonc34)NC(=O)CN(CCN(CC(=O)O)CC(=O)O)CCN(CC(=O)O)CC(=O)O)C(N)=O)C2=O)NC(=O)[C@@H](Cc2ccccc2)NC(=O)[C@H](CC(=O)O)NC(=O)CNC1=O` (stereo partly shown) (111In complex, metal not drawn) [MSAP-RGD probe] the “distribution of the probe within the tumor” value was “occurred in parts of the tumor with high CD31 (endothelial cell maker) levels and CD11b (monocytes/macrophages marker) levels”.
